The target in one assay is HLA-A*24:02. The assay is described as follows: IEDB peptide-MHC binding, purified MHC/competitive/radioactivity; filed as Kd, often an IC50 or EC50 that approximates it; ≥ and ≤ were set here for values at or beyond the usual limits of such assays.
The next assay concerns the target HLA-A*33:01. Described as above. Conditions: source organism: Triticum aestivum.
The next assay deals with HLA-A*68:01. Described as above. The settings on record: source organism: Triticum aestivum.
Another assay addresses HLA-A*11:01. Described as above. The settings on record: source organism: Triticum aestivum.
A further assay has as its target HLA-A*31:01. The description is as above. Conditions: source organism: Triticum aestivum.
The target in assay [1] is HLA-A*26:01. Described as above.
A further assay has as its target HLA-A*30:02. The assay is described as above.
Another assay has as its target HLA-A*29:02. The description is as above.
In a further assay the target is HLA-A*23:01. The description is as above.
The target in another assay is HLA-A*03:01. The assay is described as above. The settings on record: source organism: Triticum aestivum.
For another assay, the target named is HLA-B*08:01. Described as above.
Assay [2] concerns the target HLA-A*26:01. The assay can be described thus: IEDB peptide-MHC binding, purified MHC/competitive/fluorescence; filed as Kd, often an IC50 or EC50 that approximates it; ≥ and ≤ were set here for values at or beyond the usual limits of such assays.
The next assay addresses HLA-A*01:01. The assay can be described thus: IEDB peptide-MHC binding, purified MHC/competitive/radioactivity; filed as Kd, often an IC50 or EC50 that approximates it; ≥ and ≤ were set here for values at or beyond the usual limits of such assays.
The target in another assay is HLA-A*02:01. The assay is described as follows: IEDB peptide-MHC binding, purified MHC/competitive/fluorescence; filed as Kd, often an IC50 or EC50 that approximates it; ≥ and ≤ were set here for values at or beyond the usual limits of such assays. The settings on record: source organism: Yersinia pestis Antiqua.
A further assay concerns the target HLA-B*44:03. The assay can be described thus: IEDB peptide-MHC binding, purified MHC/competitive/radioactivity; filed as Kd, often an IC50 or EC50 that approximates it; ≥ and ≤ were set here for values at or beyond the usual limits of such assays. Conditions: source organism: Dengue virus 2 Jamaica/1409/1983.
The target in another assay is HLA-B*44:02. Described as above. The settings on record: source organism: Dengue virus 2 Jamaica/1409/1983.
Where [3] appears, read: source organism: Triticum aestivum.
The mark [4] stands for this setting: source organism: SARS coronavirus Tor2.
The mark [5] stands for this setting: source organism: Vaccinia virus WR.
[6] abbreviates: source organism: Lymphocytic choriomeningitis virus (strain Armstrong).
The mark [7] stands for this setting: source organism: Mammarenavirus guanaritoense.
Where [8] appears, read: source organism: Mammarenavirus juninense.

Results on 23 sequences are retold here after the Immune Epitope Database (IEDB).

In the case of SSQVLQQSTY, the Kd with HLA-A*24:02 (setting [3]) was not below 42300 nM; with HLA-A*33:01, 19000 nM; with HLA-A*68:01, 9510 nM; with HLA-A*11:01 it was 2540 nM; with HLA-A*31:01, 9000 nM; with HLA-A*26:01 [1] (setting [3]), 4630 nM. The equilibrium dissociation constant (Kd) with HLA-A*30:02 (setting [3]) is 588 nM; with HLA-A*29:02 (setting [3]), 2990 nM; in the assay with HLA-A*23:01 (setting [3]), not below 41500 nM; with HLA-A*03:01 it was 13500 nM.

Consider HAQRVESWIL, for which the Kd with HLA-B*08:01 (source organism: Dengue virus 4 Philippines/H241/1956) was found to be 355 nM.

On to DGLSSVGGY, for which the Kd with HLA-A*26:01 [2] (source organism: Azotobacter vinelandii DJ) was not below 20000 nM.

Consider LFVTIYSHL, for which the equilibrium dissociation constant (Kd) in the assay with HLA-A*24:02 (setting [4]) was 132 nM; in the assay with HLA-A*26:01 [1] (setting [4]), 1100 nM; in the assay with HLA-A*30:02 (setting [4]), not below 47400 nM; with HLA-A*29:02 (setting [4]) it was 1420 nM; in the assay with HLA-A*23:01 (setting [4]) it was 9.22 nM; with HLA-A*01:01 (setting [4]), 3760 nM.

Take SDMQKFTIL: the Kd with HLA-B*08:01 (setting [5]) was 40.9 nM.

FPRYHSIEL: the equilibrium dissociation constant (Kd) with HLA-B*08:01 (setting [5]) stood at 0.492 nM.

Regarding AFKVPGVKTV, the dissociation constant Kd in the assay with HLA-A*24:02 (setting [6]) is not below 70300 nM; in the assay with HLA-A*26:01 [1] (setting [6]), not below 69700 nM; with HLA-A*30:02 (setting [6]) it was 6590 nM; in the assay with HLA-A*29:02 (setting [6]) it was 6960 nM; with HLA-A*23:01 (setting [6]) it was not below 70000 nM; with HLA-A*01:01 (setting [6]), not below 70400 nM.

Take FFLPIFSEF: the Kd is 32.4 nM with HLA-A*24:02 (setting [7]), 0.921 nM with HLA-A*29:02 (setting [7]) and 0.198 nM with HLA-A*23:01 (setting [7]).

For VLLSKRPSL, the Kd in the assay with HLA-B*08:01 (setting [5]) was determined as 78 nM.

Take EIDETCEHEY: the Kd with HLA-A*24:02 (setting [4]) was not below 70300 nM; in the assay with HLA-A*26:01 [1] (setting [4]) it was 492 nM; in the assay with HLA-A*30:02 (setting [4]), 1060 nM; with HLA-A*29:02 (setting [4]), 656 nM; with HLA-A*23:01 (setting [4]) it was not below 70000 nM; with HLA-A*01:01 (setting [4]), 197 nM.

As to WCSQTSYQYL, the equilibrium dissociation constant (Kd) with HLA-A*24:02 (setting [6]) was 15900 nM; in the assay with HLA-A*26:01 [1] (setting [6]), not below 69700 nM; in the assay with HLA-A*30:02 (setting [6]), not below 29600 nM; in the assay with HLA-A*29:02 (setting [6]) it was 19000 nM; with HLA-A*23:01 (setting [6]) it was 8290 nM; with HLA-A*01:01 (setting [6]) it was 1040 nM.

For ELSQSMFHY, in the assay with HLA-A*26:01 [2] (source organism: Bacillus cereus G9241), the equilibrium dissociation constant (Kd) stood at 250 nM.

With LIIDEIGYL, the Kd in the assay with HLA-A*02:01 turned out to be 4.6 nM; with HLA-A*26:01 [2] (source organism: Yersinia pestis Antiqua), 4.4 nM.

For LTNSVIIMAY, the dissociation constant (Kd) in the assay with HLA-A*24:02 (setting [4]) was not below 70300 nM; with HLA-A*26:01 [1] (setting [4]) it was 2000 nM; with HLA-A*30:02 (setting [4]), 49.1 nM; with HLA-A*29:02 (setting [4]), 8.07 nM; in the assay with HLA-A*23:01 (setting [4]), not below 70000 nM; with HLA-A*01:01 (setting [4]) it was 98.1 nM.

Regarding AGSKYIHCF, the Kd was 5370 nM in the assay with HLA-A*24:02 (setting [8]); not below 77900 nM in the assay with HLA-A*26:01 [1] (setting [8]); 6500 nM with HLA-A*30:02 (setting [8]); not below 78900 nM with HLA-A*29:02 (setting [8]); not below 21400 nM with HLA-A*23:01 (setting [8]); 808 nM in the assay with HLA-A*01:01 (setting [8]).

Consider FYGGWHNML, for which the equilibrium dissociation constant (Kd) in the assay with HLA-A*24:02 (setting [4]) is not below 27900 nM; with HLA-A*26:01 [1] (setting [4]) it was not below 77900 nM; with HLA-A*30:02 (setting [4]), not below 100000 nM; in the assay with HLA-A*29:02 (setting [4]), 15500 nM; with HLA-A*23:01 (setting [4]), 5180 nM; in the assay with HLA-A*01:01 (setting [4]), not below 78100 nM.

Consider TDSPETHHY, for which the dissociation constant (Kd) was not below 77500 nM in the assay with HLA-A*24:02 (setting [7]); not below 77900 nM with HLA-A*26:01 [1] (setting [7]); 9320 nM with HLA-A*30:02 (setting [7]); not below 78900 nM in the assay with HLA-A*29:02 (setting [7]); not below 77700 nM with HLA-A*23:01 (setting [7]); 16800 nM with HLA-A*01:01 (setting [7]).

As for NRRRRTAGM, the dissociation constant (Kd) with HLA-B*08:01 (source organism: Dengue virus 2 Peru/IQT2913/1996) worked out at 98.9 nM.

For MAGPLVAGGL, in the assay with HLA-B*08:01 (source organism: Dengue virus 3 Martinique/1243/1999), the dissociation constant (Kd) is 1070 nM.

For RFFLPIFSEF, the figures for the Kd in the assay with HLA-A*24:02 (setting [7]), with HLA-A*29:02 (setting [7]) and with HLA-A*23:01 (setting [7]) were 10.2 nM, 1.03 nM and 0.232 nM, respectively.

For the sequence NARLKPLDI, the Kd with HLA-B*08:01 (setting [5]) was determined as 0.813 nM.

Consider FNATKFPSVY, for which the Kd is not below 70300 nM in the assay with HLA-A*24:02 (setting [4]); not below 24500 nM with HLA-A*26:01 [1] (setting [4]); 1210 nM in the assay with HLA-A*30:02 (setting [4]); 3040 nM with HLA-A*29:02 (setting [4]); not below 70000 nM in the assay with HLA-A*23:01 (setting [4]); not below 56300 nM in the assay with HLA-A*01:01 (setting [4]).

As for VEGVSGGSW, the Kd with HLA-B*44:03 was determined as 111 nM; with HLA-B*44:02 it was 220 nM.

As a reminder, the Kd is the concentration at which binding is half-saturated.
